Measured values taken from patent US20170088602A1 (Bristol-Myers Squibb, published 2017).
Where two headings read alike, the source gives them in different places.

B1: ActRIIb-Fc (R&D Systems) (Fc fusion, human, UniProt Q13705 19-134, looked up, not shown: a dimerising Fc or GST)
chain: SGRGEAETRECIYYNANWELERTNQSGLERCEGEQDKRLHCYASWRNSSGTIELVKKGCWLDDFNCYDRQECVATEENPQVYFCCCEGNFCNERFTHLPEAGGPEVTYEPPPTAPT
modifications: Alexa Fluor 647 label in the HTRF assay
notes: also called rhActRIIb-Fc; Human Activin RIIB Fc Chimera
B2: human BMP-11 (GDF-11; R&D Systems) (ligand, UniProt O95390 299-407, looked up)
chain: NLGLDCDEHSSESRCCRYPLTVDFEAFGWDWIIAPKRYKANYCSGQCEYMFMQKYPHTHLVQQANPRGSAGPCCTPTKMSPINMLYFNDKQQIIYGKIPGMVVDRCGCS

Assays:
[1] = biological target: T1, human myostatin (mature, recombinant; R&D Systems) (human, UniProt O14793 267-375); experiment: competitive ELISA: 10 nM myostatin preincubated with soluble ActRIIb-Fc, then binding to plate-coated ActRIIb-Fc detected with biotinylated anti-myostatin polyclonal; % competition
T1 construct: biotinylated in the mRNA display selection; also called GDF-8; mature myostatin
T1 sequence: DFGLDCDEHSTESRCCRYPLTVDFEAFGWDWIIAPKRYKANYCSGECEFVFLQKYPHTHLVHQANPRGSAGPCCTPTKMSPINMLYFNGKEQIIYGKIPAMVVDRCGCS
Experimental: Competitive ELISA: Competitive binding assays to evaluate the ability of anti-myostatin Adnectins to compete with the ActRIIB receptor binding to myostatin were carried out using competitive ELISA. Nunc Maxisorp plates were coated with 2 μg/mL ActRIIb-Fc (R&D Systems) in 0.2M sodium carbonate pH 9.6 buffer overnight at 4° C. After washing with PBS-T (PBS containing 0.05% Tween-20), wells were blocked with OptEIA buffer (BD Biosciences) for 1 h at 25° C. with shaking. Myostatin (10 nM; R&D Systems) was preincubated with a concentration range of Adnectin or ActRIIb-Fc competitor (0.2 pM to 1 μM) in OptEIA buffer for 1 h at 25° C. with shaking. The blocked and coated assay plate was washed with PBS-T, and then myostatin/competitor mixtures were added and incubated for 30 min at 25° C. with shaking. The assay plate was washed with PBS-T, after which bound myostatin was detected with 1:1000 biotinylated goat anti-myostatin polyclonal (R&D Systems) diluted in OptEIA, for 1 h at 25° C. with shaking. After washing with PBS-T, 1:5000 Streptavidin-HRP (Thermo/Pierce) diluted in OptEIA was added, followed by incubation for 30 min at 25° C. with shaking. The assay plate was developed with TMB (BD Biosciences), quenched with 2N sulfuric acid, and absorbance read at A450.

[2] = biological target: T2, human Activin A (R&D Systems) (human, UniProt P08476 311-426); experiment: SPR format A set-up
T2 sequence (looked up): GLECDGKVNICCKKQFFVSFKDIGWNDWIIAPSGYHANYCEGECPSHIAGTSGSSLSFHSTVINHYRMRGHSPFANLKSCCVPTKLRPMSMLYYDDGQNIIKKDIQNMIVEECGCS
From the text: (§1) Anti-human Fc antibody (Biacore/GE) was immobilized on a Biacore CM5 chip via NHS/EDC coupling according to the manufacturer's instructions. […] A concentration range of anti-myostatin Adnectin was applied across all flow cells in HBSP running buffer. Regeneration of the chip surface between cycles was accomplished with two 30 second pulses of 3M MgCl₂. Kinetic traces of reference-subtracted sensorgrams were fit to a 1:1 binding model using Biaevaluation software.

ActRIIb-Fc (R&D Systems) = biological target: B1; experiment: SPR format A set-up
From the text: as §1

[3] = biological target: B2; experiment: cell-based or functional assay
[4] = biological target: T2, human Activin A (R&D Systems); experiment: cell-based or functional assay
[5] = biological target: T1, human myostatin (mature, recombinant; …); experiment: cell-based or functional assay
[6] = biological target: T1, human myostatin (mature, recombinant; …); experiment: competitive HTRF (1889E01/myostatin/ActRIIb-Fc sandwich)
From the text: An HTRF assay was used to measure the binding affinities of anti-myostatin Adnectins to myostatin. […] The Eu-W 1024 labeled Streptavidin is used to bind biotinylated 1889E01. […] In the presence of a competitive Adnectin, the HTRF signal decreases.

[7] = biological target: B2; experiment: SPR format B, 37C
Experimental: (§2) A concentration range of anti-myostatin Adnectins was applied in HBSP running buffer. Regeneration of the chip surface between cycles was accomplished with 60 seconds of 10-50 mM NaOH. Kinetic traces of reference-subtracted sensorgrams were fit to a 1:1 binding model using Biaevaluation software. For Fc-formatted Adnectins, interaction kinetics are driven by avidity of bivalent Fc and dimeric myostatin even at low immobilization density. The data shown in Table 12 indicate that some of the Adnectins run in this SPR format bind myostatin and BMP-11 and also activin with similar affinities.

[8] = biological target: T2, human Activin A (R&D Systems); experiment: SPR format B, 37C
Experimental: as §2

[9] = biological target: T1, human myostatin (mature, recombinant; …); experiment: SPR format B, 37C
Experimental: as §2

[10] = biological target: T1, human myostatin (mature, recombinant; …); experiment: KinExA, solution phase, global analysis
Experimental: The affinities of PRD-1177 and ATI-1338 were also measured using the same assay format. Triplicate titrations of PRD-1177 were performed with myostatin at a monomer concentration of 1 nM (n=2) and 0.8 nM (n=1). Triplicate titrations of ATI-1338 were performed with myostatin at a monomer concentration of 5 nM (n=1), 1.6 nM (n=1), and 1.4 nM (n=1).

[11] = biological target: T1, human myostatin (mature, recombinant; …); experiment: HTRF competition binding assay, alanine mutant
[12] = biological target: T1, human myostatin (mature, recombinant; …); experiment: competitive HTRF, alanine scan
[13] = biological target: T1, human myostatin (mature, recombinant; …); experiment: cell-based or functional assay; remark: listed apart in the source
[14] = biological target: B2; experiment: SPR format A, 25C
Method in brief: (§3)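 Fc-fusion captured on an anti-human Fc antibody CM5 surface; anti-myostatin Adnectin injected over a concentration range in HBSP buffer. Regeneration used two 30 s pulses of 3M MgCl₂; reference-subtracted sensorgrams fitted to a 1:1 binding model.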

[15] = biological target: T1, human myostatin (mature, recombinant; …); experiment: SPR format A, 25C
Method in brief: as §3

[16] = biological target: T2, human Activin A (R&D Systems); experiment: cell-based or functional assay; remark: listed apart in the source
[17] = biological target: B2; experiment: SPR Format A; 100 nM BMP11 with 200 nM ATI-1523 as competitor
Experimental: (§4) Competition SPR: Competitive binding assays to evaluate the ability of anti-myostatin Adnectins to compete with Type I and Type II receptors for binding to myostatin or BMP11, as a surrogate for myostatin, were also conducted using SPR on a Biacore T100 instrument, in two different experimental formats. In “SPR Format A”, sensor chip surfaces were prepared by immobilizing 100 ug/ml protein A (Pierce) in 10 mM acetate pH 4.5 to 4500 RU on a CM5 sensor chip (Biacore/GE Healthcare) using standard ethyl(dimethylaminopropyl) carbodiimide (EDC)/N-hydroxysuccinimide (NHS) chemistry, with ethanolamine blocking. […] The running buffer for immobilization and competition experiments was 10 mM HEPES, 150 mM NaCl, 3 mM EDTA, and 0.05% v/v Surfactant P20, pH 7.4, and surfaces were regenerated between cycles using two injections of 10 mM glycine pH 1.5 for 30 s at 30 μl/min.

[18] = biological target: B2; experiment: SPR Format B; immobilized BMP11 with pre-bound PRD-1474 as competitor
Experimental: (§5) Adnectin competition using “SPR format B”: The mechanism of action for anti-myostatin Adnectins was further evaluated in “SPR Format B”, where myostatin or BMP11 (10 μg/ml in 10 mM acetate pH 4.5) were directly immobilized on a CM5 sensor chip surface using EDC/NHS coupling chemistry to a density of 985 RU (myostatin) or 530 RU (BMP11). […] The running buffer for immobilization and competition experiments was 10 mM HEPES, 150 mM NaCl, 3 mM EDTA, and 0.05% v/v Surfactant P20, pH 7.4, and surfaces were regenerated between cycles using 4 injections of 50 mM NaOH for 15 s at 30 μl/min.

[19] = biological target: B2; experiment: SPR Format B; immobilized BMP11, no pre-bound PRD-1474
Experimental: as §5

[20] = biological target: B2; experiment: SPR Format A; 100 nM BMP11 alone
Experimental: as §4

B1
IC50 (read off the curve) [1]: ~1 nM | binding result [2]: binds

B2
binding result (ActRIIb-Fc (R&D Systems)): binds

B3: ATI-1339 [40K 4-branch PEG] (designed binder)
chain: MGVSDVPRDLEVVAATPTSLLISWTLPHAGRAHYYRITYGETGGNSPVQEFTVPGRGVTATISGLKPGVDYTITVYAVTVTTTKVIHYKPISINYRTEGSGCHHHHHH
modifications: 40K 4-branch PEG on the Cys of the EGSGC tail
notes: cysteine mutant of 2987_H07
ARE-luciferase IC50 [3]: 6 nM | ARE-luciferase IC50 [4]: > 1000 nM | ARE-luciferase IC50 [5]: 0.28 nM | IC50 [6]: 0.28 nM | Kd [7]: 6.9 nM | Kd [8]: 6.5 nM | Kd [9]: 3.6 nM

B4: ATI-1338 [40K 2-branch PEG] (designed binder)
chain: MGVSDVPRDLEVVAATPTSLLISWTLPHAGRAHYYRITYGETGGNSPVQEFTVPGRGVTATISGLKPGVDYTITVYAVTVTTTKVIHYKPISINYRTEGSGCHHHHHH
modifications: 40K 2-branch PEG on the Cys of the EGSGC tail
notes: cysteine mutant of 2987_H07
ARE-luciferase IC50 [3]: 5.8 nM | ARE-luciferase IC50 [4]: > 1000 nM | ARE-luciferase IC50 [5]: 0.28 nM | IC50 [6]: 0.24 nM | Kd [10]: 0.85 nM | Kd [7]: 3.8 nM | Kd [8]: 4.6 nM | Kd [9]: 1.9 nM

B5: 3116_A06 R56A (designed binder)
chain: MGVSDVPRDLEVVAATPTSLLISWSLPHQGKANYYRITYGETGGNSPVQEFTVPGAGVTATISGLKPGVDYTITVYAVTVTDTGYLKYKPISINYRTEIDKPSQHHHHHH
IC50 [11]: > 100 nM | IC50 [12]: 55 nM | Myostatin ARE-luc IC50 [13]: > 100 nM

B6: ATI-1276 [40K 2-branch PEG] (designed binder)
chain: MGVSDVPRDLEVVAATPTSLLISWYLPYPAHMNYYRITYGETGGNSPVQEFTVPGRGLTATISGLKPGVDYTITVYAVTLTKSQILHHRPISINYRTEGSGCHHHHHH
modifications: 40K 2-branch PEG on the Cys of the EGSGC tail
notes: cysteine mutant of 2524_D09
ARE-luciferase IC50 [3]: 0.15 nM | ARE-luciferase IC50 [5]: 0.08 nM | IC50 [6]: 0.28 nM | Kd [14]: 8.8 nM | Kd [15]: 4.18 nM | ARE-luciferase IC50 [16]: 110 nM

B7: ATI-1278 [40K 2-branch PEG] (designed binder)
chain: MGVSDVPRDLEVVAATPTSLLISWSLPYAGHLNYYRITYGETGGNSPVQEFTVPGRGVTATISGLKPGVDYTITVYAVTLTKSQLIHYMPISINYRTEGSGCHHHHHH
modifications: 40K 2-branch PEG on the Cys of the EGSGC tail
notes: cysteine mutant of 2525_D05
ARE-luciferase IC50 [3]: 1.1 nM | ARE-luciferase IC50 [5]: 0.27 nM | IC50 [6]: 0.54 nM | Kd [14]: 3.3 nM | Kd [15]: 6.04 nM | ARE-luciferase IC50 [16]: > 2000 nM

B8: ALK5-Fc (R&D Systems) (Fc fusion, UniProt P36897 34-125, looked up, not shown: a dimerising Fc or GST)
chain: LQCFCHLCTKDNFTCVTDGLCFVSVTETTDKVIHNSMCIAEIDLIPRDRPFVCAPSSKTGSVTTTYCCNQDHCNKIELPTTVKSSPGLGPVE
SPR binding response (normalized) [17]: 31% | SPR binding response (normalized) [18]: 65% | SPR binding response (normalized) [19]: 100% | SPR binding response (normalized) [20]: 100%
